B1: E3 ubiquitin-protein ligase RNF146 (Homo sapiens), Q9NTX7 (parent)
chain: MMAGCGEIDHSINMLPTNRKANESCSNTAPSLTVPECAICLQTCVHPVSLPCKHVFCYLCVKGASWLGKRCALCRQEIPEDFLDKPTLLSPEELKAASRGNGEYAWYYEGRNGWWQYDERTSRELEDAFSKGKKNTEMLIAGFLYVADLENMVQYRRNEHGRRRKIKRDIIDIPKKGVAGLRLDCDANTVNLARESSADGADSVSAQSGASVQPLVSSVRPLTSVDGQLTSPATPSPDASTSLEDSFAHLQLSGDNTAERSHRGEGEEDHESPSSGRVPAPDTSIEETESDASSDSEDVSAVVAQHSLTQQRLLVSNANQTVPDRSDRSGTDRSVAGGGTVSVSVRSRRPDGQCTVTEV

Variants of: B1
Conditions: with parp1_human PARP1, P09874
parp1_human PARP1, P09874, sequence (P09874 whole entry): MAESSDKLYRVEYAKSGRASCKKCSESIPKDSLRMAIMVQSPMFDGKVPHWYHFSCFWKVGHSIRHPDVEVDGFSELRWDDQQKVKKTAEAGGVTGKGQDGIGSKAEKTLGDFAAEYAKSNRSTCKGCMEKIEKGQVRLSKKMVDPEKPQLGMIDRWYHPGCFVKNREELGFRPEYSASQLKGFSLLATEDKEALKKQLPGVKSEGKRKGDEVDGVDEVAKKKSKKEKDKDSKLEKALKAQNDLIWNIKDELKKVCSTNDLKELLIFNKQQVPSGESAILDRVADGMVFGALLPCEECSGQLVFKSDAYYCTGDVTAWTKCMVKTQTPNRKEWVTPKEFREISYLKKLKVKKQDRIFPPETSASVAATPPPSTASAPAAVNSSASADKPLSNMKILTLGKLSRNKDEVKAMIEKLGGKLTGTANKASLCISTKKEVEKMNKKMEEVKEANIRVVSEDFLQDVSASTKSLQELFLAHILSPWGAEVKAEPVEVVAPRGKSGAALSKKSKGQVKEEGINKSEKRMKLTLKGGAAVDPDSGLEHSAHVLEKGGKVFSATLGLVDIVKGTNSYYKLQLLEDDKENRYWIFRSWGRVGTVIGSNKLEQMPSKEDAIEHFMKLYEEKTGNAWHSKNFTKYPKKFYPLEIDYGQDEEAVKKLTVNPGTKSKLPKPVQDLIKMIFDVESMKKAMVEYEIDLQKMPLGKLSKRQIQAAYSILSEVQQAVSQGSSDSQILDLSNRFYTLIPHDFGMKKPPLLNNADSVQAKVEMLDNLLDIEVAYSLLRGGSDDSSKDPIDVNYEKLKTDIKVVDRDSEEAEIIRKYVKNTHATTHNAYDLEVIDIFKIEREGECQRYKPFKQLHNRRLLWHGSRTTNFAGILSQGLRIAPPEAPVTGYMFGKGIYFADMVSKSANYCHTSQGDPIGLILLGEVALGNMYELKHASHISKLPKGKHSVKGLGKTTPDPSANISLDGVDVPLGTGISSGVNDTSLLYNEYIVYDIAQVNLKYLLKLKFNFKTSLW

Row | Variant | effect of a mutation on the interaction
1 | H54A | with no effect

— IntAct's records for PubMed 21799911
